Experimental data reported in the DeepSol protein solubility set.

Experiment: soluble on expression in E. coli; label from the status in PepcDB or PDB records

Soluble on expression in E. coli, not soluble:
MGSDKIHHHHHHACTGSSQKEKPACVNTPVEPFTGLPVFDLQEQYPEKEIILQDIADVRYVVLETGDSSLVGIRPILMTDSFLVTVNKKSDVIFFDKSGKYLHSFNHTSMSGEEYGDIVSGYCIDEKAREIFIYDGLQSRIQVYGYGGAYRRTLKLPQNRMFASSIFEYDENFLFGEDYRLVDSQIGKYPVNKTPYYKISKKDGKLTSIPITVKERIRDGLSYTVGDGAFGYVSLLMSPVARFGSDILIADYSLDTAYVYRDDHLIPLTVRRNHTSENNIPILATVDVMTGRYLLWYTIVKDIDVKNNRVSDPVSYLYDRFTNEYCRVDLVNRDVVSATNIPAFQMRLSANYHVVPENYAIQYYPAEELIELNGQGKLKGELKEIASKLNDEDNPVLLIAKFKE, MGSDKIHHHHHHADDDKPIQVSQMPQKAQQFIKQHFAGSNIAMAKVESDFLQKSYDVIFTDGNKVEFDKKGNWTEVNCKFSVVPQGIIPSPIQKYTATNYPDAKVLKIERDKTDYEVKLSNGWELKFDSKFNLIDIDN, MGSDKIHHHHHHAEKLSDGKVKLGVLTDMTGYYADLAGPGSVVAARMAVEDFGGKVLGKPVELVSADHQLKADVASNIARKWIDEGQVDAIVDLVSSSTAGAVMPVAAEKKRITLLSGPGTTAFTGEKCTRYNVHYTYNNWALANGTGREVVKQGGDSWFFLTADYIFGKSLEEDTTKVVKAAGGKVLGAARYPSPGTTDFSSYLLQAQGSGAKIVGLANAGADTVNSIRQAEEFGVTPKQSLAGLLVFITDVHSLGLEAAKGMYLTTAFYWDLNDETRKWSRRFFQKHGKMPTMVQAGVYSSVMHYLKAVQAAGTDDADAVMAKMRETPVNDFFAKNARIGPDGLLRHDMYLARVKAPKDSKQPWDYYQIVKTIPAAEAFPSVEAQACPLAKR, MGSDKIHHHHHHAEVDQATKPAEAKYYIAGTITDATTGQELTTAKVTLGDKSVTSSFNEQVNYKAEGYALVVSADGYYPVKRQVYLNQVSDGQTSVATVNVALVSVEAAVIPPVVPPTDPETDINEGEATKVADKAVEVAKPSESTVTDMLAGTTATPEEKKALDETLEMAGGMKVGETTPEVLADGSILAITPVKFTNPIQDAPAMVPYFYNEGCELTGDVKEVAAPVTRADGAVAADIQKAFLSNAAKALNMNAGFVQKIGYTRISVLNGYSILGYTIKGQLVSKKLTFLISGKYYEGIVSYQKSVMIYPNYYSHDSHDSHDSHGFNPNAGGGSND, MGSDKIHHHHHHAIGFGLSYGTEIESIGLGLKYQYNITNPIRLEPSLNYFIENDNVSMLDINMNLHYLCPVGRSVKLYPLFGFTFSNWMFDLGDGFDIDVDGDHIHIDKDDDNHNECRVGVNIGGGADFALTSSWIMNFELRYQLVSDFDQAVFNLGFAYRF, MGSDKIHHHHHHAKSYSKAVTKIAGTKNYPIYHKVTKNGPSGKFTSTSYFKYGQIQSKQYVSTKKGNFWNIIVDGRPVGWVSENCFARNTISVANDVSLVKNSDYSFNTRDAINYATDSHGTAIDPDRVQVSQASVSTKATTVNYSYGKAKASVNIDVRSGNDEMGEANVTPKSGFKTTTTWNGGSKGSSRNWNAAHHYTSETTSNTFKSNGLTLRTRLFQPRFVSLGYGQSADKMGQVGVIPEGMTVNGGIFATSMFTSSSDQHGHIVSYNLNTIKSKYAVQNLTTMNWSTFKSYANNIKVSPYIKLGHGQSLGSSSDYIYVMANDNNYNNGPRSEEIIQIRKSDMKINKIWTFRIAENRYIHNATFVGDNTMYALFHNGGHNHYEYWKLTRNGDSWKATEVGATAGSFVSNSPVQGFAYGNGSFFIGFNDNIFKVSENGAAQKHYRFNTGREIEGLSANGSDLYVQFAQRAELTQGRF, MGSDKIHHHHHHAMSNKPVVLQGQIEATEIRISGKLPGRIDTFLVREGQYVKMGDTLVVINSPEAWAKFQQVNALEDIAKFQNKKIDDGTRRQIVRSVEELWNKSKSDLQLATVTYDRIQALYKDSVVTSQRKDEVEAMYKAAVAAERAAHQQFLLVKDGAQKEDKESARSLVDAARGTVNEVQALLMDARLTAPEDGQISTIYPKRGELVGAGTPIMSLVVLDDCHVVLNVREDYMPYFRMNENFMGDIPALDVKNKAFKINYISPLGSFATWRSTKQTGTYDMKTFEIHALPVEPMEGLRPGMSVLVNLDELK
